Assay results published in article PMC3510253 (PLoS Pathogens, 2012).

Target: T1, MBP-human TRIM25-Flag (human, UniProt Q14258 1-630)
T1 construct: human TRIM25
Experiment: pull-down
Details: both partners purified

T1 sequence (Q14258 whole entry): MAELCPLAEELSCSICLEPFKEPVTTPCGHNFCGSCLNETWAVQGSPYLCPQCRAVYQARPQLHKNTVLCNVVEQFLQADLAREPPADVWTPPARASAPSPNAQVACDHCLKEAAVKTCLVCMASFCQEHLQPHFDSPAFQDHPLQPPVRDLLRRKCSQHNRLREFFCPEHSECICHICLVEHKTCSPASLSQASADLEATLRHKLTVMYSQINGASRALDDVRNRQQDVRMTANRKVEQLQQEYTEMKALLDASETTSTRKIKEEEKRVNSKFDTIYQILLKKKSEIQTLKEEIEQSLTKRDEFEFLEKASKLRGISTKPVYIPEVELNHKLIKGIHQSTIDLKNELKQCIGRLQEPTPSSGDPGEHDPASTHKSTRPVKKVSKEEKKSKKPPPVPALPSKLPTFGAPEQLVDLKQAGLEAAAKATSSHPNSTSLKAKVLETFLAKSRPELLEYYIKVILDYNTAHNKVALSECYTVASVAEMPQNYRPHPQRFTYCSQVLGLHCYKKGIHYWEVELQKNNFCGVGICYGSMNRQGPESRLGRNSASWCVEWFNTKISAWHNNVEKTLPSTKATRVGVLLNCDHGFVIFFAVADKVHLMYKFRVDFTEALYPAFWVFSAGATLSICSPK

B1: Glutathione-S-transferase (GST)-NS1 fusion protein (PR8) (natural protein)
chain: MDPNTVSSFQVDCFLWHVRKRVADQELGDAPFLDRLRRDQKSLRGRGSTLGLDIETATRAGKQIVERILKEESDEALKMTMASVPASRYLTDMTLEEMSRDWSMLIPKQKVAGPLCIRMDQAIMDKNIILKANFSVIFDRLETLILLRAFTEEGAIVGEISPLPSLPGHTAEDVKNAVGVLIGGLEWNDNTVRVSETLQRFAWRSSNENGRPPLTPKQKREMAGTIRSEV
notes: source: bacteria, purified
binding result: binds
